Values of other authors, collected in publication PMC3728333, “Development of an Epidermal Growth Factor Derivative with EGFR Blocking Activity” (PLoS ONE, 2013).

Assays:
[1] = tested on: EGFR-positive breast cancer cells
Source text: (§1) Moreover, EGFt could also be used as a targeted toxin delivery agent. In this respect, we are currently developing ^111In–DTPA–EGFt as a potential Auger electron-emitting radiotherapeutic for EGFR-positive breast cancer.

[2] = tested on: EGFR-positive breast cancer; conditions: ref [44], [45]
Source text: as §1

B1: ^111In-DTPA-hEGF: ^111In-DTPA-hEGF, Kd value obtained from previous work (conjugate, UniProt P01133 23-1207, looked up)
Pro-epidermal growth factor: PQHWSCPEGTLAGNGNSTCVGPAPFLIFSHGNSIFRIDTEGTNYEQLVVDAGVSVIMDFHYNEKRIYWVDLERQLLQRVFLNGSRQERVCNIEKNVSGMAINWINEEVIWSNQQEGIITVTDMKGNNSHILLSALKYPANVAVDPVERFIFWSSEVAGSLYRADLDGVGVKALLETSEKITAVSLDVLDKRLFWIQYNREGSNSLICSCDYDGGSVHISKHPTQHNLFAMSLFGDRIFYSTWKMKTIWIANKHTGKDMVRINLHSSFVPLGELKVVHPLAQPKAEDDTWEPEQKLCKLRKGNCSSTVCGQDLQSHLCMCAEGYALSRDRKYCEDVNECAFWNHGCTLGCKNTPGSYYCTCPVGFVLLPDGKRCHQLVSCPRNVSECSHDCVLTSEGPLCFCPEGSVLERDGKTCSGCSSPDNGGCSQLCVPLSPVSWECDCFPGYDLQLDEKSCAASGPQPFLLFANSQDIRHMHFDGTDYGTLLSQQMGMVYALDHDPVENKIYFAHTALKWIERANMDGSQRERLIEEGVDVPEGLAVDWIGRRFYWTDRGKSLIGRSDLNGKRSKIITKENISQPRGIAVHPMAKRLFWTDTGINPRIESSSLQGLGRLVIASSDLIWPSGITIDFLTDKLYWCDAKQSVIEMANLDGSKRRRLTQNDVGHPFAVAVFEDYVWFSDWAMPSVMRVNKRTGKDRVRLQGSMLKPSSLVVVHPLAKPGADPCLYQNGGCEHICKKRLGTAWCSCREGFMKASDGKTCLALDGHQLLAGGEVDLKNQVTPLDILSKTRVSEDNITESQHMLVAEIMVSDQDDCAPVGCSMYARCISEGEDATCQCLKGFAGDGKLCSDIDECEMGVPVCPPASSKCINTEGGYVCRCSEGYQGDGIHCLDIDECQLGEHSCGENASCTNTEGGYTCMCAGRLSEPGLICPDSTPPPHLREDDHHYSVRNSDSECPLSHDGYCLHDGVCMYIEALDKYACNCVVGYIGERCQYRDLKWWELRHAGHGQQQKVIVVAVCVVVLVMLLLLSLWGAHYYRTQKLLSKNPKNPYEESSRDVRSRRPADTEDGMSSCPQPWFVVIKEHQDLKNGGQPVAGEDGQAADGSMQPTSWRQEPQLCGMGTEQGCWIPVSSDKGSCPQVMERSFHMPSYGTQTLEGGVEKPHSLLSANPLWQQRALDPPHQMELTQ
modifications: Pro-epidermal growth factor 111In-DTPA
cytotoxic effects in vitro [1]: potent cytotoxic effects in vitro | tumour growth inhibition in vivo [2]: tumour growth-inhibition in vivo
